Earlier results as cited in US20050164248A1, “Compositions isolated from bovine tissues and methods for their use” (priority 1999, published 2005).

Test system: Candida albicans
Conditions: general statement, no value

B1: Lactoferrin (protein, UniProt P02788 20-710, looked up)
Lactotransferrin: GRRRSVQWCAVSQPEATKCFQWQRNMRKVRGPPVSCIKRDSPIQCIQAIAENRADAVTLDGGFIYEAGLAPYKLRPVAAEVYGTERQPRTHYYAVAVVKKGGSFQLNELQGLKSCHTGLRRTAGWNVPIGTLRPFLNWTGPPEPIEAAVARFFSASCVPGADKGQFPNLCRLCAGTGENKCAFSSQEPYFSYSGAFKCLRDGAGDVAFIRESTVFEDLSDEAERDEYELLCPDNTRKPVDKFKDCHLARVPSHAVVARSVNGKEDAIWNLLRQAQEKFGKDKSPKFQLFGSPSGQKDLLFKDSAIGFSRVPPRIDSGLYLGSGYFTAIQNLRKSEEEVAARRARVVWCAVGEQELRKCNQWSGLSEGSVTCSSASTTEDCIALVLKGEADAMSLDGGYVYTAGKCGLVPVLAENYKSQQSSDPDPNCVDRPVEGYLAVAVVRRSDTSLTWNSVKGKKSCHTAVDRTAGWNIPMGLLFNQTGSCKFDEYFSQSCAPGSDPRSNLCALCIGDEQGENKCVPNSNERYYGYTGAFRCLAENAGDVAFVKDVTVLQNTDGNNNEAWAKDLKLADFALLCLDGKRKPVTEARSCHLAMAPNHAVVSRMDKVERLKQVLLHQQAKFGRNGSDCPDKFCLFQSETKNLLFNDNTECLARLHGKTTYEKYLGPQYVAGITNLKKCSTSPLLEACEFLRK
inhibitory activity against Candida (statement on control peptide): extremely inhibitory
